{"source": "patent US20230212258A1", "about": "(MCMASTER UNIVERSITY, published 2023)", "binders": {"B1": {"name": "CD4 TAC -cytosol (receptor)", "chain": "MSRGSDLGKKLLEAARAGQDDEVRILMANGADVNAKDEYGLTPLYLATAHGHLEIVEVLLKNGADVNAVDAIGFTPLHLAAFIGHLEIAEVLLKHGADVNAQDKFGKTAFDISIGNGNEDLAEILQKLNEQKLISEEDLNPGGGGGSGGGGSGGGGSGGGGSGSMDIQMTQTTSSLSASLGDRVTISCRASQDIRNYLNWYQQKPDGTVKLLIYYTSRLHSGVPSKFSGSGSGTDYSLTISNLEQEDIATYFCQQGNTLPWTFAGGTKLEIKGGGGSGGGGSGGGGSGGGGSEVQLQQSGPELVKPGASMKISCKASGYSFTGYTMNWVKQSHGKNLEWMGLINPYKGVSTYNQKFKDKATLTVDKSSSTAYMELLSLTSEDSAVYYCARSGYYGDSDWYFDVWGQGTTLTVFSTSGGGGSLESGQVLLESNIKVLPTWSTPVQPMALIVLGGVAGLLLFIGLGIFF", "notes": "It was detected through its Myc tag in the pull-down; also called TAC cytosolic deletion variant; cytosolic deletion"}, "B2": {"name": "N-Darpin Tri-TAC (receptor)", "chain": "MSRGSDLGKKLLEAARAGQDDEVRILMANGADVNAKDEYGLTPLYLATAHGHLEIVEVLLKNGADVNAVDAIGFTPLHLAAFIGHLEIAEVLLKHGADVNAQDKFGKTAFDISIGNGNEDLAEILQKLNEQKLISEEDLNPGGGGGSGGGGSGGGGSGGGGSGSMDIQMTQTTSSLSASLGDRVTISCRASQDIRNYLNWYQQKPDGTVKLLIYYTSRLHSGVPSKFSGSGSGTDYSLTISNLEQEDIATYFCQQGNTLPWTFAGGTKLEIKGGGGSGGGGSGGGGSGGGGSEVQLQQSGPELVKPGASMKISCKASGYSFTGYTMNWVKQSHGKNLEWMGLINPYKGVSTYNQKFKDKATLTVDKSSSTAYMELLSLTSEDSAVYYCARSGYYGDSDWYFDVWGQGTTLTVFSTSGGGGSLESGQVLLESNIKVLPTWSTPVQPMALIVLGGVAGLLLFIGLGIFFCVRCRHRRRQAERMSQIKRLLSEKKTCQCPHRFQKTCSPI", "notes": "Chimeric receptor expressed on engineered human T cells (in 293TM cells for the pull-down); also called full length CD4-TAC"}, "B3": {"name": "CD4 TAC A85V, T161P mutant (receptor)", "chain": "MSRGSDLGKKLLEAARAGQDDEVRILMANGADVNAKDEYGLTPLYLATAHGHLEIVEVLLKNGADVNAVDAIGFTPLHLAAFIGHLEIAEVLLKHGADVNAQDKFGKTAFDISIGNGNEDLAEILQKLNEQKLISEEDLNPGGGGGSGGGGSGGGGSGGGGSGSMDIQMTQTTSSLSASLGDRVTISCRASQDIRNYLNWYQQKPDGTVKLLIYYTSRLHSGVPSKFSGSGSGTDYSLTISNLEQEDIVTYFCQQGNTLPWTFAGGTKLEIKGGGGSGGGGSGGGGSGGGGSEVQLQQSGPELVKPGASMKISCKASGYSFTGYPMNWVKQSHGKNLEWMGLINPYKGVSTYNQKFKDKATLTVDKSSSTAYMELLSLTSEDSAVYYCARSGYYGDSDWYFDVWGQGTTLTVFSTSGGGGSLESGQVLLESNIKVLPTWSTPVQPMALIVLGGVAGLLLFIGLGIFFCVRCRHRRRQAERMSQIKRLLSEKKTCQCPHRFQKTCSPI", "notes": "CD4 TAC with the mutated UCHT1 domain; also called UCHT1 (A85V, T161P)"}}, "key": {"Lck": {"target": "Lck (UniProt P06239 2-509, limits assumed)", "sequence (P06239 2-509 limits assumed)": "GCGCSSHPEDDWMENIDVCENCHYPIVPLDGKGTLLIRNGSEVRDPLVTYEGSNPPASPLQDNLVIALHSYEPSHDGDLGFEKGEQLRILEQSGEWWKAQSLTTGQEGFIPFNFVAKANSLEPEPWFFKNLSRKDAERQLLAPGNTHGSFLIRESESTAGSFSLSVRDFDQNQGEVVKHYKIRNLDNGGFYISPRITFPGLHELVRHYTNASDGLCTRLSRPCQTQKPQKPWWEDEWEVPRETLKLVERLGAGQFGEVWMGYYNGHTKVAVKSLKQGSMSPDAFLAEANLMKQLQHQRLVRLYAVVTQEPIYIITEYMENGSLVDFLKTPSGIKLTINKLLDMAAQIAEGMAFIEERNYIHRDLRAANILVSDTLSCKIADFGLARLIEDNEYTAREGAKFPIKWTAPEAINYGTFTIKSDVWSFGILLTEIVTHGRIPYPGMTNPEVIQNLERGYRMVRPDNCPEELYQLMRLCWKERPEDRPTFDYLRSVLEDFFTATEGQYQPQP", "experiment": "pull-down from 293TM lysates on Her2 antigen beads, western blot for Lck", "experimental": "In FIG. 13A, Her2 antigen was covalently attached to magnetic beads. […] Beads were incubated with cell lysates over night and subsequently washed and western blotted. Lck was detected using an Lck antibody, TACs were detected via Myc antibody. […] Signal was corrected relative to the negative control."}, "Her2Fc [1]": {"target": "T1, Her2Fc (UniProt P04626 23-652, limits assumed)", "T1 construct": "It is printed both as Her2Fc and as FcHer2; also called FcHer2; FcHer2 antigen; not shown: Fc part", "experiment": "flow cytometry, transduced T cells incubated with Her2Fc (FIG. 2)", "experimental": "T-cells had been incubated with Her2Fc, which later was detected via flow cytometry. The presented data was gated on CD8+ lymphocytes. The shown gates were chosen based on the untransduced control."}, "Her2Fc [2]": {"target": "T1, Her2Fc", "experiment": "flow cytometry, engineered PBMC, NGFR marker and FcHer2 (FIG. 16B)"}}}
{"binder": "B1", "values": [{"measurement": "binding result", "setting": "Lck", "value": "no binding"}]}
{"binder": "B2", "values": [{"measurement": "binding result", "setting": "Her2Fc [1]", "value": "binds"}]}
{"binder": "B3", "values": [{"measurement": "binding result", "setting": "Her2Fc [2]", "value": "binds"}]}
